Data published in paper PMC13168245.

target: AMC008 SOSIP.v4.2 Env (HIV-1 (clade B, isolate AMC008)); assay: mass photometry; AMC008 alone or with one excess Fab, 1:9 molar ratio in PBS, on ice 30 minutes, diluted in PBS; mass increase divided by 55 kDa per Fab

Question: Which stoichiometry N does the source give for antibody b12 Fab here?
Answer: The stoichiometry N was 3.09 Fab/55 kDa.

Question: For antibody 3BC315 Fab, which stoichiometry N is on record?
Answer: Its stoichiometry N is 2.07 Fab/55 kDa.

Question: How did the stoichiometry N turn out when AMC008 SOSIP.v4.2 Env (complex) was run?
Answer: The stoichiometry N was 3.
